Test results taken from US20250164508A1, “G-PROTEIN COUPLED RECEPTOR ASSAY” (The Regents of the University of Michigan, priority 2022, published 2025).
Square brackets hold non-standard residues; d marks the D form. Ends that are not written are not given here. Cha = N[C@@H](CC1CCCCC1)C(=O)O

Key:
[1] = target: MOR-SmBit (Mu-opioid receptor with SmBit attached to the C-terminus) (UniProt P35372); experiment: in-solution split NANOLUC complementation, separately expressed components, with and without loperamide
Sequence of MOR-SmBit (Mu-opioid receptor with SmBit attached to the C-terminus) (P35372 1-400, tags or fused parts left off): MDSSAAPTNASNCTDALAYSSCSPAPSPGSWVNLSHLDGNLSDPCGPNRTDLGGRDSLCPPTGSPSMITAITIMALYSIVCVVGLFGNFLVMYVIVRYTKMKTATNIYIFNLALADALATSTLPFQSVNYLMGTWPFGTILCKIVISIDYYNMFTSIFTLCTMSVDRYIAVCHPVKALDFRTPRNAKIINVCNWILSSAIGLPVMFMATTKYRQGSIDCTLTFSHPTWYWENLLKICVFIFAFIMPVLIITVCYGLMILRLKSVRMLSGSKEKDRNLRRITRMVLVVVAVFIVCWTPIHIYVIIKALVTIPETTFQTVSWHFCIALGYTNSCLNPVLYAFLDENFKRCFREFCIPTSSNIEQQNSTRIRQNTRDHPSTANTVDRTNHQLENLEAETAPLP

[2] = target: MOR-SmBit (Mu-opioid receptor with SmBit attached to the C-terminus) (UniProt P35372); experiment: in-solution split NANOLUC complementation, co-expressed components, with and without loperamide
[3] = target: Melanocortin-4 Receptor (MC4R) (Homo sapiens, UniProt P32245); experiment: MC4R IGNiTR assay; settings: Gs fusion peptide 2 μM; drug 10 μM
Sequence of Melanocortin-4 Receptor (MC4R) (P32245 whole entry, species assumed, the tested form may be a part): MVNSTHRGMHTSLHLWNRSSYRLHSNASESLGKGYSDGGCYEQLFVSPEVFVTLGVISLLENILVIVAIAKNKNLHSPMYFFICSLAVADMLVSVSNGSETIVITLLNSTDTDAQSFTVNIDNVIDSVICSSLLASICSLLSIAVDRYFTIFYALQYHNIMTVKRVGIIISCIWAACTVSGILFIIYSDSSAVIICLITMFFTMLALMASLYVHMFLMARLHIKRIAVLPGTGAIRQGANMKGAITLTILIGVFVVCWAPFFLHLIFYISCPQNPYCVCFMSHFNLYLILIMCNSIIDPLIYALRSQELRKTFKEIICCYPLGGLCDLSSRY

[4] = target: β2-adrenergic Receptor (β2AR) (Homo sapiens, UniProt P07550); experiment: β2AR IGNiTR assay (β2AR-LgBiT cell lysate with SmBiT conformation-specific binder); settings: SmBiT-Gs peptidomimetic fusion peptides with β2AR-LgBiT
μ-opioid receptor (μ-OR) = μ-opioid receptor (μ-OR) (Homo sapiens, UniProt P35372); experiment: μ-OR IGNiTR assay with Gi fusion peptide
Sequence of μ-opioid receptor (μ-OR) (P35372 whole entry, the tested form may be a part): as the sequence (P35372 1-400, tags or fused parts left off) above

MOR = target: T1, MOR (Homo sapiens, UniProt P35372); assay type: biochemical; settings: peptidomimetic 35 uM and 28 uM
T1 construct: made in house; host or cells: HEK293 adhesion cells (general method)
T1 sequence (P35372 whole entry): as the sequence (P35372 1-400, tags or fused parts left off) above

[5] = target: B2AR-SmBit (beta-2-adrenergic receptor fused to the SmBit fragment of split NANOLUC) (UniProt P07550); experiment: in-solution split NANOLUC complementation, detergent-extracted B2AR mixed with nanobody lysate, with and without isoproterenol

Nb39-LgBit (Nb39 attached to LgBit on the C-terminus) (VHH)
fold signal change between (+Lop) and (-Lop) [1]: 3.2 fold | fold signal change between (+Lop) and (-Lop) [2]: 3.8 fold

VTGYRLFEEILGSFNDCRDIIQRMHLRQYE-{Cha}-L (VTGYRLFEEILGSFNDCRDIIQRMHLRQYE[Cha]L) [Gs fusion peptide]
DDR significance [3]: significant DDRs | agonist-dependent DDR [4]: significant DDR | agonist-dependent DDR ([4]; listed as peptide 2): showed agonist-dependent DDR

VTGYRLFEEILGSKKKFDAVTDIIIKNNLKDCG[Cha]F [Gi fusion peptide]
DDR (μ-opioid receptor (μ-OR); 2 μM peptide, 0.5× μ-OR-LgBiT lysate, around 10 minutes): ~4 | DDR significance (μ-opioid receptor (μ-OR); Gi fusion peptide with μ-OR): significant DDR | binding to the MOR protein (MOR): successful binding

VTGYRLFEEILGSKKKFN-C-SRD-C-IQRMHLRQYE-{Cha}-L [peptide 1]
agonist-dependent DDR [4]: did not demonstrate agonist-dependence

B1: Nb80-LgBit (Nanobody 80 fused to LgBit) (VHH, from another filing)
VHH: QVQLQESGGGLVQAGGSLRLSCAASGSIFSINTMGWYRQAPGKQRELVAAIHSGGSTNYANSVKGRFTISRDNAANTVYLQMNSLKPEDTAVYYCNVKDYGAVLYEYDYWGQGTQVTVSS
fold signal change between (+Iso) and (-Iso) [5]: 1.9 fold
